The results in this text go back to the DeepSol protein solubility set.

The data set can be described thus: soluble on expression in E. coli; label from the status in PepcDB or PDB records.
In the case of “MIVVFDAQCLLCSGFARFLLKHDRRGVLRFASMQGETGRALLRAADVDPEDVDTVLFVRDGRAWRESAAALRILHALGWPWRLAWLGWAVPLPIRDALYRCVARNRYRWFGCSDTCILPPPGAAQRFLDLEHHHHHH”, the “soluble on expression in E. coli” value is on record as “not soluble”.

As to “MKFPGQRKSKHYFPVHARDPLVSQAQEAKKMSRTHIIGIDQTLVDIEAKVDDAFIEKYGLSKGHSLVIDNDKAEMLYNELKDNNMISNEFAGGTIGNTLHNYSVLADDKSTLLGVMSEDIHIGSYSYRYLCNTSSRMDLNYLQPVPGAIGRCFALISEDGERTFAISEGDMNQLRAESIPEKIFKNASALVLTAYLVRCKEGDPMPEATMKAIEYAKKYDVPVVLTMGTKFVVQDDPQYWRDFLNDHVTVVAMNEEEGEALTGATDPLEAANKTLEWVDLVLCTAGPVGLYMAGYTEDSAKRETSLPLLPGTIAEFNQFEFSRPAVKDSCENPIKVFSHISPYMGGPEKIKNTNGAGDGALSALLHDMAANHYHRNNVPNSSKHQHSFLTYSSFSQVCKYSNRVSFEVLAQHSPRLSRGLPEREDSLEEAYWER”, the “soluble on expression in E. coli” value is “not soluble”.

For “MGSDKIHHHHHHMIKWRDGKLGLPIKEAVELFPELKNFLDEKGRLDFSNREARILYNKAVAKVLFDLDIEYHPKGLVTPPISRYIFLKTFLRGGEKVLEIGTGHTALMSLIAEKVFKCDVTATELDNEFYSYAKLNIARNNSRIKLLKSSGGIIRGVVPRGERFDVIFSAPPYYEKHSGGVLTEREALGGGKFGEEFSIKLLNEALDYLNAGGKVALFLPHKRDLLNAIKMKGIRLGYEVRDILFKVGTRKRHSLILTV”, the “soluble on expression in E. coli” value is “not soluble”.

For “ILAVLFANSVGNVLIERFNGVPAEERLHWRSFLVKLGADNLKGVKNEELLVACHKSVYIVYTMLGDVSIFLVGKDEYDELALAETIYIITAAVKDVCGKPPTERVFLDKYGRICLCLDEIVW”, the “soluble on expression in E. coli” value is reported as “not soluble”.

With “MSLSVLNGYQLIISDVDGVIVREGDPIWENIQALRNIQNNGVKIIFVTNNSGFSRILLSRQLSYLGLKVTPDMIITSGLAAAIYMKEKLNVKSVFAVGEEGLIEELKNHGFLVFSSAESERILPDAVVMGLDRLSTYDKLSLAMRCISKGSKFIVTNMDRLWPAKDGLKLGAGALASSIIYALRRDPDFIAGKPNTWIVEIAMRISNVKKLDKILVIGDQIETDIQMGYNIGADTALVLTGISNVDDVDRSNVKPKYVVNTLLDLLEGHHHHHH”, the “soluble on expression in E. coli” value is “soluble”.

Consider “MSLGSMSATPLQAGLKTLQLTEPFRIAHGTSTERQVLRLRWNGAVGEAPVVPYYKESAAVTLEWLQALDWNGSPAPKDGPRLGRLALDLLWHDAVGRDKRQTLGQMLHLNPAQTPPGCRSFSIPTDLDKFAEKVAQVSRQFQVLKLKTGSGNVEFDEAIVATARKAAPDAKLLVDANGGWTVEETAAILPKLVKYDLTLVEQPFHHDGGSESWRELKYLLPSHSIPLYADESAQGPDDVLTLAGLVDGVNVKLLKCGSIAEAQTMIRFARASGMGVLLGCMIESSVGVTAAAHLAPLADWIDLDGHLYVADDDYEGVSYDEQGRLHLRDLPGLGVTPREGHHHHHH”, for which the “soluble on expression in E. coli” value was “soluble”.

As to “MAETQFTRFPFQPFIIEAIKTLRFYKPTEIQERIIPGALRGESMVGQSQTGTGKTHAYLLPIMEKIKPERAEVQAVITAPTRELATQIYHETLKITKFCPKDRMIVARCLIGGTDKQKALEKLNVQPHIVIGTPGRINDFIREQALDVHTAHILVVDEADLMLDMGFITDVDQIAARMPKDLQMLVFSATIPEKLKPFLKKYMENPTFVHVLEHHHHHH”, the “soluble on expression in E. coli” value was “soluble”.

For “MGSDKIHHHHHHMKTRESSVGLKFRKFNRFYTNVLGFLNEHIYDSPFSLTETRILFEIYNTPNCTAKALQDKLGLDRGYVSRIVKQFEKEDLIYKQRSKDDARHHYIFVTETGKTIYKKLEEKANEQVELMLKVINQKEQHKLAEAMAEIEAILSQSLSARASEISIRDYFLSEDLQLLIEKQRQFYAEAHGWDDTFLAYLQETFDADIEKIWIAESGGKFAGSVGLVKHDEKTVQLRWFLVDADFRGRGLGTQLLEHLVAYCQDMKFDRIFLWTVSTMAEARPLYKKFGFRISEVKQEAPLWGQQLTEERWDLELS”, the “soluble on expression in E. coli” value is “not soluble”.

Take IPTKFVQKVTITKEGKKRVAPQLLTTLSA: the “soluble on expression in E. coli” value is reported as “soluble”.

“MGSDKIHHHHHHMKEKERLIIEMAMKLFATKGVNATSVQEIVTACGISKGAFYLYFKSKEELLLATLRYYYDKIQNKMMDIEKESLLPREKFAKQLHCQFNDIQKHKEFIIMHARENAIPFNKEVEEFMMRMKLESHAFYRNSLLSIYGDKVMPYLLDLVIMVEGICRGYLELIILQAPEIDLSYVSAFILKRVDHLVDGLVKSSEEPVLHEERLGEFLCKSELIKEQVKEHFLKEIIVFKRTLADQLEDEELLVTLDVLEAEMRMQNPRIPVIQGMLFNLEAYPTLKEFRLRLMGYYNIKR”: the “soluble on expression in E. coli” value is “not soluble”.

“MSFERSRHDLKLKTSDGMHCVMTNKEIVCLASQFFRQHLKDTTTEFTVGRADSVESIDICLTYMITGIYKKPAQFSPKLASEIFALANQWKVLEPKVLKNSIEKHCCEELQKNYEDIMYVCNMLIIAEDAHFTNVQSCCIATLVFYHVRDFIRIIVNGVESPTEECFSQRREFLKPSLTMQAKRAFAASNEAKCFIKFLPAIGED”: the “soluble on expression in E. coli” value is “not soluble”.

“MSLATIKDIARRAGVIPSTVNRTLKDNPSISKETKAKVRAAMDELGYVPNSAAQMLATGLTHSLGVVLPPLTDRENISQPFYMEIITAINEEASSNSQVVSIATGATLEELVKQVELMHRQKRADGFIILYSETNDPVKDYLLKEKVPSVVVGAAVDNNDKVTYIDNDNKELGQEAVNFLRAKGHQKIGFVTDDLFGQVGQEHYQGYIEATNEFNLETYPELVFSSRVIDSLIESLQSYQLTALIVKDDLIALRFIHWLNNQGIRIPEDYAIISFNNSIFAEIMYPFLTTYDINIKELGKESVQRLLDLLKNPQTKAQKITIPFRLIERESVSMGEGHHHHHH”: the “soluble on expression in E. coli” value is recorded as “soluble”.

Regarding “MGSDKIHHHHHHMWPDRHAKHLTLGRSRQQMLEFENVSKSFWTGTQRKVILDRVSFRVELGKSMGILAPNGTGKSTLINMMAGLEKPDEGVIRRGCNISFPLGFMGGVVGRLSAMENSRYIARLYGMDPDYIEAYCRWLCGLGEYFDQPLGTYSSGMRARFSFALMLALDFDMYLIDEGMPASTDVEFNKKAGAILEERLRTTTIVIVSHQPATLEQFARQAAVLMDGQLHVFDTLEEAKQLYDYQTQG”, the “soluble on expression in E. coli” value is listed as “not soluble”.

With “QQFFFENDALGQSSTDFATNFLNLWDNNREQLLNLYSPQSQFSVSVDSTIPPSTVTDSDQTPAFGYYMSSSRNISKVSSEKSIQQRLSIGQESINSIFKTLPKTKHHLQEQPNEYSMETISYPQINGFVITLHGFFEETGKPELESNKKTGKNNYQKNRRYNHGYNSTSNNKLSKKSFDRTWVIVPMNNSVIIASDLLTVRAYSTGAWKTASIAIAQAAGS”, the “soluble on expression in E. coli” value is “soluble”.

Turning to “MSLNIHPMWNTYPTLSKELTTTLRLMEQAVQIDNQEIQAAVHDMIHSGGKLLRPAYQLLFSYFGEQRDPKKATALAASIELLHTATLVHDDIVDEADTRRGLPTLRSRFGNSTAVYTGDYLFVCCFKLLSDYSSSLKSIQLNSRSMEKVLTGELGQMDNRYNFEVTIDQYLKNISGKTAELFALSCFVGAYESGTSQRFAKRCGEIGENIGLAFQIIDDILDYTQTADAIGKPVLEDVRQGVYSLPLIYALEANREVLLPLLMKKEALTDEETQEIYRLVHELGGVEKAQELATHYTEKALKEISKLPETKAQAKEQLYEITQTILTREGHHHHHH”, the “soluble on expression in E. coli” value was “soluble”.

In the case of “MSLKAVSEADIQAALKEGGTITVWAWEPTLKQVATDFEKEHPGVKVDLVNAGTNKDQYTALQNAISAKKGVPDVAQIEYYAMGQYALTKQLTDLKSFGADKLSAQFSPGPWNGVKAGSDGVYALPMDSGPMALFYNKKVFDKYDIKVPTTWAEYLDAARDLHKADPKAYITADNGDAGFATSMLWQAGSRPYTVDGTKVKIDFSDQGAKTFTETWQQLIDEKLLASVPAWTDEWYKGLGDGSIATLATGAWMPANLESGAKSASGDWRVAPMPQWKAGDKVSAENGGSALALPELGKNEALAYAFVEYANAGDGVQTRLKNGAFPATTADLQSTRFQDTAFPYFGGQKANKIFAESAADVPDDWSYLPYQVYANSVFNDTVGKAYVSGTTLAEGLESWQEASVKYDEEQGLPSRRKGIITITTDPNSSSVDKLAAALEHHHHHH”, the “soluble on expression in E. coli” value is “soluble”.

Regarding “MLHEIPKEEILEKLKNIGAKKVLIQSPEGLRREAEELAEFLEKNEIEVILHGEINYGACDPADHEARLLGCDALIHLGHSFMMLSLEVPTIFVPAFAKVNVVEALKKNLHEIKKLGKKIIVTTTAQHIHQLERAIEYLKSQGFEPVVGRGDNRVSWPSQVLGCNFSVAKVEGDGILFIGSGTFHPLGLALATGKRVLAVNPYSGDCQWINELAERFIRKRWAQIAKAMDAKRFGVVISTKRGQLRLNEAKRIIKLLKDHGREAKLIAMNDISYSKLEGFSFDAYVIVACPRVPIDDYENWRKPVLTPREVEILLGLREEYIFDEIPGGVREKDEPLGISLHSTRLEHHHHHH”, the “soluble on expression in E. coli” value is “not soluble”.

Consider “MENGHLAKVDLTKKIESKSKYNKKLEKYQRRLLALQQILKEEKIAVMLVMEGWDAAGKGGAIKRVTEHLDPRGFQVDPIGAPAPHEKRYHYLQRFWRKIPQYGQITIFDRSWYGRVLVERVEGFATKEEWMRAYDEINDFEKLLTDDHYIIGKFFYHISKEEQLKRFKDREKNPLKRWKITDEDWRNREKWDEYVEAMEDMFEKTSKPNAKWHIIESNDKLYARVKTLKIIISFIEDYFLEHGIELPSYYYEMKEDIEVLQDVGVKE”, for which the “soluble on expression in E. coli” value was “not soluble”.

On to “MGSDKIHHHHHHMIDGKTANEIFDSIRQHIIAGTLRAEDSLPPVRELASELKVNRNTVAAAYKRLITAGLAQSLGRNGTVIKGSPSPVALEGGDPHTPLHDLSGGNPDPQRLPDLSRYFARLSRTPHLYGDAPVSPELHAWAARWLRDATPVAGEIDITSGAIDAIERLLCAHLLPGDSVAVEDPCFLSSINMLRYAGFSASPVSVDSEGMQPEKLERALNQGARAVILTPRAHNPTGCSLSARRAAALQNMLARYPQVVVIIDDHFALLSSSPWQPVIAQTTQHWAVIRSVSKTLGPDLRLAIVASDSATSAKLRLRLNAGSQWVSHLLQDLVYACLTDPEYQHRLTQTRLFYAARQQKLARALQQYGIAISPGDGVNAWLPLDTHSQATAFTLAKSGWLVREGEAFGVSAPSHGLRITLSTLNDSEINTLAADIHQALNR”, for which the “soluble on expression in E. coli” value was “not soluble”.

On to “MSTKEKKTKKPHNVKSSVVPPKKWKTKKKDKKGTGKLRKTASNASLKKHGSTHKIKKPEDITSDGCPLLLTASDTCANIYAEQLSAPNNLSAKTSTPHKSIEAALTPVAFSPPPATQATQAMDAPATTKTAVKPTKWKAEDVAVAYIQKLDPGVIRAEYIEACAATKVNIDKDCQLWKKNLQMNQADNYPILDSTIVKNPAQPDSYVNMSSVIVPHCRYPILMAQMPKRGFEEEFWRAAFNESVVIMYVLMGTEDEKNDFFPTTMGAYVYYGAMFVNIRKVEKMDEERTRYTIEVLPNGFSNSVMMNVYVHTGWEASGVPVRYANTTRSVVDVMNFVKTSSGTEKMLVVSKNGCGRAGFFLSLGAAFCCLNDNSEPRIGEIVKAIRSQRPNAVDSIKQYASIYLCFVYYIKKKITIPEGMQQKFDDLKKGIEAIIREDLSIMY”, for which the “soluble on expression in E. coli” value is recorded as “not soluble”.

On to “MNEISVVLPAYNEEENIQKLVKRWQQLCKDLKYKYELSLNIFVIDDGSKDKTEVIGRELERKYDNFYLIKHDKNKGLGEAINTGIKYVMEKRSDSKYVCIMDCDNTQDPRYVFSMIEKMEKTDVVIASRYQKGSCVKGVPFFRLTASYGARFVYTIFLGVKNVRDYTCGYRLYRTSALKTAFKVFGESFIEESGFTCMVELLYKLNICGAVFKEVPFTLRYDFKGGVSKMKVLITAINSVKLTLRLKKIRKGVEPVLEDLEHHHHHH”, for which the “soluble on expression in E. coli” value is “not soluble”.
